Measurements: patent US20160355553A1 (Janssen / Centocor, published 2016)

Columns and labels:
Mal2506-04 B-m2 = target: T1, Mal2506-04 B-m2 (influenza B virus, UniProt P03461 6-574); experiment: FACS, transfected cells
T1 chain: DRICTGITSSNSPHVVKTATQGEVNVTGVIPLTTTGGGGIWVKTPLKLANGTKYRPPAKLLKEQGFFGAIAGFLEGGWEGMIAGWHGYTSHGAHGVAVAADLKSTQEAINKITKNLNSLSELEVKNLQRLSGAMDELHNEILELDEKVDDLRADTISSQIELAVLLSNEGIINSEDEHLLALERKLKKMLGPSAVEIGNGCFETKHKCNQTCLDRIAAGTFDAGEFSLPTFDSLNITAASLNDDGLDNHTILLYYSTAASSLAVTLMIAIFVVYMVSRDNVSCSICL

FL4-06 B-m2-CL1+5-GCN4b = target: T2, FL4-06 B-m2-CL1+5-GCN4b (influenza B virus, UniProt P03461 6-574); experiment: FACS, transfected cells
T2 chain: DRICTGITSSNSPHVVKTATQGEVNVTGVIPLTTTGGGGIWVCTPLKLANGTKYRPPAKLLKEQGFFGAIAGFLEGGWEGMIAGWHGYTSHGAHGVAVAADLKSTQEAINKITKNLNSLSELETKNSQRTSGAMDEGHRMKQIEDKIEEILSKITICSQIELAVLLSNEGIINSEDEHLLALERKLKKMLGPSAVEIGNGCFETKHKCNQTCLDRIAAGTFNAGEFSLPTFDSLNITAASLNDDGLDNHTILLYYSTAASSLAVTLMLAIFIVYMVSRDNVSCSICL

B1: CR9114 (antibody, V domains shown)
VH: QVQLVQSGAEVKKPGSSVKVSCKSSGGTSNNYAISWVRQAPGQGLDWMGGISPIFGSTAYAQKFQGRVTISADIFSNTAYMELNSLTSEDTAVYFCARHGNYYYYSGMDVWGQGTTVTVSS
VL: SYVLTQPPAVSGTPGQRVTISCSGSDSNIGRRSVNWYQQFPGTAPKLLIYSNDQRPSVVPDRFSGSKSGTSASLAISGLQSEDEAEYYCAAWDDSLKGAVFGGGTQLTVL
binding result (Mal2506-04 B-m2): no binding
binding result (FL4-06 B-m2-CL1+5-GCN4b): no binding
